Reference: article PMC2191090 (The Journal of Experimental Medicine, 1993)
Where no end group is shown, it is not given here. The star is where a group is joined. Biotin = O=C1N[C@H]2[C@H](CS[C@H]2CCCCC(=O)*)N1; 22‑Å spacer = not defined here

Key:
surface-expressed HLA-DR = assay: Specificity of peptide binding to surface-expressed HLA-DR; set-up: species or system human; conditions: amino-terminal biotin via 22-A spacer
[1] = target: HLA-DR4 (DRB1*0401) on Priess cells (human (endogenous in Priess)); assay: flow cytometry on cells
[2] = target: HLA-DR7 (DRB1*0701) on Mann cells (human (endogenous in Mann)); assay: flow cytometry on cells
[3] = target: HLA-DR1 (DRB1*0101) on LG-2 cells (human (endogenous in LG-2)); assay: flow cytometry on cells
[4] = target: HLA-DR2 (DRB1*1501/DRB5*0101) on MST cells (human (endogenous in MST)); assay: flow cytometry on cells
[5] = target: HLA-DR3 (DRB1*0301) on WT-20 cells (human (endogenous in WT-20)); assay: flow cytometry on cells
[6] = target: HLA-DR8 (DRB1*0801) on 23.1 cells (human (endogenous in 23.1)); assay: flow cytometry on cells

Molecule | relative mean log fluorescence [1] | relative mean log fluorescence [2] | relative mean log fluorescence [3] | relative mean log fluorescence [4] | relative mean log fluorescence [5] | relative mean log fluorescence [6] | effect of biotinylation on binding (in words) (surface-expressed HLA-DR)
VGSDWRFLRGYHQYA [HLA-A2-1ike peptide 103-117] | – | – | – | – | – | – | interfered with the normal mode of binding
biotinylated synthetic Ig kappa chain C region peptide 188-202 | 189 | 171 | – | – | – | – | –

Now from value to molecule, other results behind:

relative mean log fluorescence [1] | relative mean log fluorescence [2] | relative mean log fluorescence [3] | relative mean log fluorescence [4] | relative mean log fluorescence [5] | relative mean log fluorescence [6] | Molecule | effect of biotinylation on binding (in words) (surface-expressed HLA-DR)
189 | – | 345 | 148 | 176 | 172 | {Biotin-22‑Å spacer}-APSPLPETTENVVCALG (reading uncertain) [biotinylated synthetic HLA-DR alpha chain peptide 182-198] | –
215 | 288 | – | – | – | – | {Biotin-22‑Å spacer}-LPKPPKPVSKMRMATPLLMQALPM (reading uncertain) [biotinylated synthetic invariant chain (Ii) peptide 97-120] | –
